The series in a line: soluble on expression in E. coli; label from the status in PepcDB or PDB records.
Consider “MHIKSIHLDGFKSYQKHTDILDFSPTFNAITGYNGSGKSNILDSICFIMGINKLDNIRAKSMHELISHGGTKAIVQVRFDNTDKRCSPFGMEHLDEIVVQRIITAQATGKGCATSYTLNGHAATNGKMQDFFRGVGLNVNNPHFLIMQGRITTVLNMKPEEILGMVEEAAGTKMYDQKKKDAEKTMFLKDAKLKEVDRIFQSSIDPRMVKFREDRKNMVEVTRLKKLKENFSRKYEAFQYFQTCEAVKKSAKEIEDAKKGIEDLGEKFNQLDLDLKNKEDEKKKMEESRDDQHEEAALSAAHLSKQSIMLQKETVKNQLVETINKLKKEGEQINKSLSKDREVLDAKRKEHEDSKAANSKDIQSQSDDEALVTKYRNDLESLTRGTIANDKGEHVSIESEIQSCKSTASQMSSGITAAKKRGERLHNQIKHLEGEKATLSARSKSDIGSADNYQKEVDEINKQLQLLGFNIDADTEKREHAAKLHESITKLKDMDTRLLNSYKDGRYALNYQRPPLHIDKFDEKRDVFGYVAHLIKMKPGCEQFAVAADIALGGVLGNVVVSTQDIARILIDGKAFTSRKTMIPVSENARNASSYNTLPDVKLRRAKEIAEKYNDTVTKMIDLIEYPDFISNTILNAVGQILVVDSLDVAREIAYDEVAKTRMITRRGDDVRTNGIMTGGYNDPGNKPALIALEPMYARRPQIEAQQRELDALNRELQLTEASSQKCRDLNNQLATAMRKLAQVKTNINNSEFGIVVRDLKVHSEEYEKNQAEIEATVKTLKDVEDKIKTLESMKNKDKNSQEKRKKELTALLQKAEQTVAQNKNRGEKARREVMLLQATVEEMEKTIKKDEGIWEQKKKECDELEEKLPNAIAALKDAELEQKAAQAKLNDLKNNQRQISTRLGKIAKECDALIREKAKTKSKREEKEKELTSLQQSEASNRKEARSKLKKFEWLSDEEAHFNKKGGLYDFEGYTVSKGKDEIKELTDKIETLERSCCIQNVSNLDTCEAKVLDIKNKRERITEDFNMLKKTIATLDKKKVDELIRAHESVNKDFGQIFNCLLPDAHASLVPPEGKTVCEGLEVKVSFGGVVKDSLHELSGGQRSLVALSLILAMLKFKPAPLYILDEVDAALDLSHTANIGMMIKTHFHHNQFIIVSLKQGMFSNADVLFQTRFADGHSTCTRLNGGDIAVLCQDKVLQAQALELTDAGKAKKDAAAKKGAQKNDKEPPKKKPIVVDDDDFE”, for which the “soluble on expression in E. coli” value is “not soluble”. As for “MHKPLRIATVTATCAVAGAVLYTTGAASAGQSTANSTHEPYNIGVLAKDIDAYYGTTLDADGVYQASPDSPYAADLARVDAAAKKQIDRAARTAHHKHTRPAVVFDIDDTLLLSLDYEKKNNYGYDGATWAAYVDRADRPAVPGSPELARYADKKGVEVFYNSGLGEAQRAAAVENLKKAGADVNLDASHMFLKDKANPPSYLAHCATPGSWTCTTVQYKAGTRRHIERDLGYDVVANFGDQYSDLQGGYADRTYKLPNPTYFVE”, the “soluble on expression in E. coli” value is reported as “soluble”. As for “MHKVLVPFDGSEHAMRALGYVIELSGDLNKPLEVHVLNVQASPIDYSLYLAPDMIDGVKAGLKNEGKRVLDDAIALLAAAGVPFQAHVDLGNVAEQVEAEVQRLGCDAVVMGTRGLGNFGGLLLGSVATRVIHEVSVPVTLIK”, the “soluble on expression in E. coli” value is “not soluble”. On to “MHLDVLDLHNFYYRTPLGRVAQRAVRDQVQKLWPDAQGQTVAGFGFSVPLLRPYLEQARRLIALMPGPQGVMPWPVGMGNVSVLCEEGAWPLSTGMVDKLVMLHGLETSEHPSEVLSEAWRVLGPGGRALFIVPSRSGLWARRDGTPFGFGRPYSLNQLEAQLKRHDFTPERALAALFAPPLHQRFWLKTADFWETGGRRFAPWLVGGVLIVEASKQVYAPTRTGLKAAVSKPLRVLEGIPQPLPAPAGRTSDGSCGCPGGC”, for which the “soluble on expression in E. coli” value was “not soluble”.

On to “MHMEDFIQFFSGSNLSIDKANFDQFGLKAKIKHYQKGQLLITQGQPAPKLFFLIKGMVRYMSVSATGKEFTQSFAFAPGISGSTRAMTRNANALFSIEALDDVICLEFEWHVFFDQMQSQPGFLAAYNRLLENMFIKKEEREFAFVQQSAEQRYLTFLDMNPQLRDKISLKMIASHIGITPIALSRIRNKLK”, for which the “soluble on expression in E. coli” value is listed as “not soluble”. For the sequence “MHMELRMVGRLSWITLFTLFLVGCSSAPDDSSPHSQVNDPLESFNRQMWTINYDYLDPYVVRPVSLFYVGYVPKPVRSGIANFLSNLDEPASMVNNLLMGNGTKAVDHFNRFWINTSFGLLGLIDIASEAGIKKYDDKAFSDAVGHYGVGNGPYLMVPGYGPYTVREVTDVVDGMYFPLAYLNIWAGVGKWALEGMETRAALVSQEALLQDSPDPYSLARDAYLQRQAFKAEIQVDDYDPEEEEYLDEYLNEGL”, the “soluble on expression in E. coli” value is given as “not soluble”. The value for “MHQQLMVMIDRKRRRSFIMMRSMFSGVSGLQAHQTKMDVIGNNVANVNTVGFKSSRVTFQEVFSQTLKGASSPDPTTGRGGTNPMQVGLGLGVATIDTLMTRGSVQRTDNPTDLAIEGDGFFIVKGGSSDTFKFTRAGNFGIDRLGNLVTGSGLNVYGWQSYTKLPDGTYKFDTESQIEPINLYSDDVNKNKRMIAAKATTYAIFEGNLDASYSIYSSAASGTSSNNRFTMPVTVYDSLGNSYKINISFWKTDVTGGVTTWTWQVDSGNGVTASGATGTILFDDQGQVIESSAVTPSITIIPDSSVGSQNINVKLDFSRLTMYAADSSAKATNVDGYPAGSLVTFSIGSDGMIMGIYSNGQQQPLGLIALASFDNPAGLEKVGENMYIPTSNSGEFKKGVKAGTEGVGTLSPGTLEMSNVDLSKEFTEMIITQRGFQANSRIITTSDEMLQELVNLKR” was “not soluble”. For “MHRDSTDIEVKRASELPENLPETTCAFANMPSGGTIILGVDENRDFEVVGVADAAALEEALISQTRNSVKPAPMIECETFTLEGKQVLVAQVNPVPLQNRPAHYRGVAYLRQSDGDYGMNDADLALVEIQKLSHSENFQFDVVPVLNSSTRDLDSVRVKSFLEAARAGSRILSKKIDDQELLETLNIVTVKGAAALEHHHHHH”, the “soluble on expression in E. coli” value was “not soluble”. Take “MHRGITVQTSDLDDGVTGVVGKVYIEASPKHVWAAITDYNNHKSFVPKLIDSGLISDNGREQVMFERGKTGIFLFRKTVYIKLSLQGEYPKRLDFHQIEGDFKVYEGDWLIERASDGKGSILTFRAKIKPDFFAPAMFVRKVQQNDLPLEHHHHHH”: the “soluble on expression in E. coli” value is on record as “soluble”.

In the case of “MHSITTALENLTRQLSQEIPATPGLCVFDAPFPLNDAFDALSWLASQSSFPQFYWQQRNGDEEAAVLGAITVFSSLDLAQRFLRQHAQPDLRIWGLNAFEPKEGYLLLPRLEWRRSGGTATLRLHLHSDVSLRDDARQAKAFLASLVGIKPVPALRLSLTSEQHWPDKDGWVKLIQQATHTIAQEAFDKVVLARATDLQFSRPVNAAAMMASSRRLNLNCYHFFMAFSADTAFLGSSPERLWRRRETALRTEALAGTVANHPDNHKAWQLGEWLMKDDKNQRENMLVVEDICQRLQNCTHSLDVLPPQVLRLRKVQHLRRCIWTALNQADDTLCLHQLQPTAAVAGIPREPARCFIEQHEPFEREWYAGSAGYLSTRQSEFCVTLRSAKVTANVVRLYAGAGIVRGSDPEQEWQEIDNKAAGLRTLLQMDA”, the “soluble on expression in E. coli” value was “not soluble”. Take “MHSIYKFSTCNVHRESPLRVRVEDLTVAYNGEPVLSGVNLEFRGPGLVQIIGPNGAGKTTFLKAILGLIKPARGRVFLDGFEATGRPEMVGRYAGYVPQNPSAPKLSPMTVREFVETSLRLRGVTRARERAVEVLHTLGIRGEVLESRLWELSMGMLQRVFIARAIAPDPKMLVMDEPLASVDPAGRMEIARIIAGLARERLVLMTSHDPSLLLGHTDIIVVINRDLIASGPPEEVYREDVLRRVYGESVARGLVLAGEGGAHG”: the “soluble on expression in E. coli” value is reported as “soluble”.

Take “MHSLGWDIWNAVQPKEFYKGFLRRSIRPDGRKLSEYRDITLRKGPLVTTVDGSANASIGRTVALIGIQPKVIEWKETKKGSARSIVGQHCSLQVEFPSVCHRDIRSGRTLEEALLVKESLENVLEQILERDSFCIVPDKFYWHLQITAYCLSLDGNVIETFLLALYGALLDLQLPVVRASTSGDLLTLDPNQPKVTLPMKKLEDWPWVVPIGLFWNGPSEYYAVLDLSEEEENNMSSIVWIWNSQRGDKLAISKQKVGPLSVNILQEVLQLVKAHIDEVILRLQHGK”: the “soluble on expression in E. coli” value is given as “not soluble”. The value for “MHSQQRPNPQMNRHPYGTPGSAPQMRRPGGFAGQPPQMHGPRMVAPPAAPLPKKKKYADKCIHPKIRELEPDAENYMALLASEQKLDSTLSRKKLDIQEALKRPSKVKKRLRIYISHTFIEEKQPEKDTDEASLPMWELRVEGRLLDEQPPAPAIPGQRPVPKRKFSSFFKSLVIELDKEMYGPDQHLVEWHRTPQTNETDGFQVKRAGDRPVKCRILLLLDNHPAKFKLHPRLAKVLGIATETRPKIIEALWQYIKTHGLQDPQERDIINCDTFLSQCFGVNRMRFMEVPNKLHQLLQQTDPLEFNHIIQRPKEGQEQVSTCYDIDVEMEDPVKQFMHTFVHSPGLANDIQTLDQKCYDIIEQINELKTRRDFYARFYTEPAEFIKSWVMSQNSDLKTMNELSGDLEAERFAESYVRPETEEGVQRYMFQKVNQKRHELEQSLGVRSN” was “not soluble”.

For the sequence “MHTDMKSVGTVSMQEAPLLEIAVVGHTNTGKTSLIRTLLRSTSFGRVDDAAGTTRHVERATIFAGSEAVLNLHDTPGIEDVYALQDKLHLIATRNKRSTQSELLEKFVAATPLNDPLEQEAKVIRQVLRSDVLLYVIDVREPVLEKYLIEIEILGKAMKPMIPIFNFTAAHRAELDLWRKKLAAFNIYASLELDTVAFAFEAEKRLYQKIQSLLEVHYTRLQRLIDHRARVWNQLCMSAARRIAGLIITTACYREHTGDERSSAGDTSSAAIRLQDFIRQAEQHCLVDLLKMFNFTDKDIELQKIPVQNGYWQLDLFAPGVLKAYGLDIGSAALKGAAAGAGIDLMTGGLSLGVASMLGALAGTGWSTFRRYGKEIQAKIRGTRWLCVDDSTLQLLYLRQRQLLDKLMNRGHAACHTDQVSQQPERGELPDGWQQIIDMLRQNPAWGRSPGLHTDDTRQYSSIEKRLIDALLKNPAL”, the “soluble on expression in E. coli” value is given as “not soluble”.

For the sequence “MHTFYLPFILSLSMPPKKKSSKTIYKFPQSFHDLPKSLSKNYYQPEPESIINDQIIIIKNFFNKDLCNELIKSFETQLNMETTPLIKSKEYAARFNDRSSMNDLLSANILWQYLQKILLDNPYNDEDLKEINQIFQDAVGLNPQLRVYRYTRGHHFGKHYDDSVICPIPPQGTKKGYTTWTLLIYLTGDEEFKGGGTIFYPEIKNIKPLNIHPNKGMALLHKHGDDCLKHEAEMVANGAKWVLRSDVVFPI”, the “soluble on expression in E. coli” value is recorded as “soluble”.

As to “MHTQYFPNRRPGRIQPLGIQQNTIYVYVKVKHVLEFYAIDIRLPYHWHQIAKLNISEMSYTFSTLSPDFRYIYVLFLRVAREMATFAVQRFDLENNGTADLFLLNAAEELYRVFEVPLDSVTLRCDSGGQLVLYDRSIVQGEIPFWTIRLEESTKTFRILKNSIPTAGDDTERNSALFTIAVDPVNRCFAKLMSPRTMLVYTEERKRWVEYHIPVEQSLQDIFGSDGFPVEEIRGIRETFGTHGHRMGALQTRLTFHDLNDVLVARCLHLHWNTTATVEFDHVNREIQVRLLAKFPLDDEVTRMFYLIASKEHHVFLGVYDTAIVHIKSPKLEEIVGWRMQKMLMRDGHKDEVLQISNYRQLLALALTKYADKDEDLAENLKNLGIEPPRKKLVVMEIELD”, the “soluble on expression in E. coli” value is “not soluble”. The value for “MHTSLMSYNQNMIPSGDDRPVFPTIDLFANTSLEELQQSLCAAVANYRDFLTRKILPFQQSWVVRVLSESGLDEETLRAIKSCVFTPCCSIPGAVQPDRICQHDSPIYIYTSLNLLSQYVEGKTLLRCYRKFVLASSLPPYRTDIPAEELKNVLNSILPGAYSMPHAVSCFVAILPSKKFTISMSKITTRGGAEEHFVVFSREENDIIPYDIVAVGKTLFSQSDEEFGLPNLSFDELQNLISTLEHHHHHH” was “not soluble”; that for “MHYVTPDLCDAYPELVQVVEPMFSNFGGRDSFGGEIVTIKCFEDNSLVKEQVDKDGKGKVLVVDGGGSLRRALLGDMLAEKAAKNGWEGIVVYGCIRDVDVIAQTDLGVQALASHPLKTDKRGIGDLNVAVTFGGVTFRPGEFVYADNNGIIVSPQALKMPELEHHHHHH” was “soluble”.
